Measured values as given in patent publication US20250043002A1.

Columns and labels:
[1] = biological target: hPD-L1-mFc: hPD-L1 extracellular domain (amino acids F19-T239) expressed with the Fc portion of mouse IgG2a at the C-terminus (human; mouse) (UniProt Q9NZQ7); experiment: blocking ELISA, 0.7 nM hPD-L1-mFc on plate-coated hPD1-hFc
[2] = biological target: human CD28 expressed with a C-terminal murine Fc tag (hCD28.mFc) (human); experiment: SPR Biacore 25 C, hCD28.mFc captured by anti-mFc, antibody injected
[3] = biological target: human PD-L1 expressed with a C-terminal myc-myc-hexahistidine tag (hPD-L1.mmH) (human); experiment: SPR Biacore 25 C, antibody captured by anti-hFc, hPD-L1.mmH injected
Chain of human PD-L1 expressed with a C-terminal myc-myc-hexahistidine tag (hPD-L1.mmH) (human) (chain, as listed by the source limits assumed): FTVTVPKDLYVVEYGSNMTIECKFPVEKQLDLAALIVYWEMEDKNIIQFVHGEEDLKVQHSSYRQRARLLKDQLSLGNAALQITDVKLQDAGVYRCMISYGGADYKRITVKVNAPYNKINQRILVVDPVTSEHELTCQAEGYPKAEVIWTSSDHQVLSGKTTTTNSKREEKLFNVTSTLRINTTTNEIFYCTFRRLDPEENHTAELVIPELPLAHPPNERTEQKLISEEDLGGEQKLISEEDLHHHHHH

Chain of hPD-L1-mFc: hPD-L1 extracellular domain (amino acids F19-T239) expressed with the Fc portion of mouse IgG2a at the C-terminus (human; mouse) (Q9NZQ7 19-239 limits assumed): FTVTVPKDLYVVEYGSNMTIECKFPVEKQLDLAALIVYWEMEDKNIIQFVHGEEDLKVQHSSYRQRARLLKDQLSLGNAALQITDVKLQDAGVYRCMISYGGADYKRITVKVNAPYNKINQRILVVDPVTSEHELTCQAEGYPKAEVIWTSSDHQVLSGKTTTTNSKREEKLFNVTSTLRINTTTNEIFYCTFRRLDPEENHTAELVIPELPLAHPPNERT

Substance	% Blocking at 100 nM mAb [1] [%]	90 nM mAb Bind (RU) [2] [RU]	30 nM hPD-L1.mmH Bind (RU) [3] [RU]
Isotype control 2 (antibody)	1	–	–
Isotype control 3 (antibody)	4	–	–
Isotype Control (antibody)	–	-4.3	0.5
Isotype control 1 (antibody)	1	–	–
